# Biological target: T1, HLA-A*0201 molecule expressed on human T2 cells (human)
# T1 construct: surface HLA-A2 detected with anti-HLA-A2-PE (clone REA517); also called HLA-A2
# Test: T2 cell HLA-A*0201 binding assay, anti-HLA-A2-PE flow cytometry
# Protocol: T2 cells (5·10⁴ cells per well) are incubated with decreasing concentrations of peptides from 100 μM to 0.1 μM (4 points: 100 μM, 10 μM, 1 μM, 0.1 μM) in serum-free medium (TexMacs) supplemented with 100 ng/μl of 2 Microglobulin at 37° C. for 16 hours. Cells are then washed two times and marked with the anti-HLA-A2 antibody coupled to PE (clone REA517, Miltenyi).
# For each peptide concentration, the geometric mean of the labelling associated with the peptide of interest is subtracted from background noise and reported as a percentage of the geometric mean of the HLA-A*0202 labelling obtained for the reference peptide HIV pol 589-597 at a concentration of 100 μM.
Binder,"in vitro binding affinity (relative affinity, normalized against HIV-pol)",concentration of peptide that induces 20% of HLA-A2 expression [µM],mean relative fluorescence intensity at 0.1 µM peptide,mean relative fluorescence intensity at 1 µM peptide,mean relative fluorescence intensity at 10 µM peptide,mean relative fluorescence intensity at 100 µM peptide
SLPDRILTV (also called ENT204_B1; ENT_204-B1) [CDC20-B1],0.6 ratio to HIV pol reference peptide,–,–,–,–,–
SLDQKLFQL [ANKRD30A-H3],0.4 ratio to HIV pol reference peptide,0.32,5.9 % of HIV pol reference peptide,41.9 % of HIV pol reference peptide,99.1 % of HIV pol reference peptide,97.1 % of HIV pol reference peptide
YLILEYATV (also called ENT199_B1) [AURKA-B1],–,1.16,–,–,–,–
AVYSEILSV (also called ENT169-H) [ANKRD30A-H1],–,0.65,–,–,–,–
ALYSEILTV (also called ENT169_B1; ENT_169-B1) [ANKRD30A-B1],0.04 ratio to HIV pol reference peptide,0.05,33.3 % of HIV pol reference peptide,77.2 % of HIV pol reference peptide,93.7 % of HIV pol reference peptide,88.2 % of HIV pol reference peptide
ALNPELLAL (also called ENT207_B1; ENT_207-B1) [KIF2C-B1],1.6 ratio to HIV pol reference peptide,–,–,–,–,–
KILDTVHSC [ANKRD30A-H2],29.9 ratio to HIV pol reference peptide,25.3,1.2 % of HIV pol reference peptide,1.8 % of HIV pol reference peptide,8.7 % of HIV pol reference peptide,52.3 % of HIV pol reference peptide
TLDQKLFMV (also called ENT180_B1) [ANKRD30A-B3],0.2 ratio to HIV pol reference peptide,0.14,18.8 % of HIV pol reference peptide,67.5 % of HIV pol reference peptide,120 % of HIV pol reference peptide,112 % of HIV pol reference peptide
LILDTVHSL (also called ENT174_B1) [ANKRD30A-B2],1.3 ratio to HIV pol reference peptide,1.13,1.7 % of HIV pol reference peptide,12.4 % of HIV pol reference peptide,72 % of HIV pol reference peptide,90.8 % of HIV pol reference peptide
LVIGIILAV (also called ENT176-H) [CDH17-H1],14.9 ratio to HIV pol reference peptide,14.1,0.5 % of HIV pol reference peptide,3.7 % of HIV pol reference peptide,17.6 % of HIV pol reference peptide,–
ILLSIQSLL [UBE2C-H2],3.5 ratio to HIV pol reference peptide,3.27,2.1 % of HIV pol reference peptide,8.5 % of HIV pol reference peptide,32.7 % of HIV pol reference peptide,–
ALYDVRTIL (also called ENT168-H) [UBE2C-H1],8.8 ratio to HIV pol reference peptide,15,3.8 % of HIV pol reference peptide,-0.2 % of HIV pol reference peptide,6.8 % of HIV pol reference peptide,134 % of HIV pol reference peptide
ALYDVRTILL (also called UBEC2-H11; ENT168-HL) [UBE2C-H11],8.7 ratio to HIV pol reference peptide,14.9,4.2 % of HIV pol reference peptide,-2.3 % of HIV pol reference peptide,8.9 % of HIV pol reference peptide,135 % of HIV pol reference peptide
VLNPELLML (also called ENT207_B4) [KIF2C-B13],0.8 ratio to HIV pol reference peptide,0.189,10.5 % of HIV pol reference peptide,42.1 % of HIV pol reference peptide,45.3 % of HIV pol reference peptide,50.3 % of HIV pol reference peptide
KIIGIILAV (also called ENT176_B1; ENT_176-B1) [CDH17-B1],–,0.2,–,–,–,–

# From patent US20250205324A1, “ANTIGENIC PEPTIDES FOR PREVENTION AND TREATMENT OF CANCER” (ENTEROME S.A., priority 2022, published 2025)
